Measurements from publication PMC3521718, “Histone Deacetylase HDA6 Is Functionally Associated with AS1 in Repression of KNOX Genes in Arabidopsis” (PLoS Genetics, 2012).

Target: T1, glutathione S-transferase (GST)-HDA6 recombinant protein (Arabidopsis thaliana, UniProt Q9FML2 1-471)
T1 construct: Histone deacetylase HDA6 of Arabidopsis; Printed both as GST-HDA6 and as HDA6-GST; also called HDA6-GST; source: recombinant protein
T1 sequence (looked up): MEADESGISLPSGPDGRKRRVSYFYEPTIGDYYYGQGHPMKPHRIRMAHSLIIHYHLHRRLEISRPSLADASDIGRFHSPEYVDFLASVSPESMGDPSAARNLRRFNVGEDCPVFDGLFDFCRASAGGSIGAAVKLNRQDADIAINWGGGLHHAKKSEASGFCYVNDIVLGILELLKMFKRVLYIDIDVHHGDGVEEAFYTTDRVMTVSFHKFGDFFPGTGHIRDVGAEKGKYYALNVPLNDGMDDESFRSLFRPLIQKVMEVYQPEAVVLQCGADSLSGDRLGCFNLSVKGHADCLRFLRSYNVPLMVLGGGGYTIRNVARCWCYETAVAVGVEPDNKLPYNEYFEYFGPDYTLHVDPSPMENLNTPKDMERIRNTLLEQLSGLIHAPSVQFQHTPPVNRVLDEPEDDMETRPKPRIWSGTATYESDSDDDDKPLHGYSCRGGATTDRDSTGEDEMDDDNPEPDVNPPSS
Assay: pull-down; 2 µg MBP-AS1 on MBP resin, then 2 µg GST-HDA6 for 2 h at 4°C; 20 mM Tris-HCl pH 7.5, 200 mM NaCl, 1 mM EDTA; western blot with anti-GST
Conditions: both partners purified

B1: MBP-AS1 recombinant protein (natural protein, Arabidopsis thaliana, UniProt O80931 1-367, looked up)
chain: MKERQRWSGEEDALLRAYVRQFGPREWHLVSERMNKPLNRDAKSCLERWKNYLKPGIKKGSLTEEEQRLVIRLQEKHGNKWKKIAAEVPGRTAKRLGKWWEVFKEKQQREEKESNKRVEPIDESKYDRILESFAEKLVKERSNVVPAAAAAATVVMANSNGGFLHSEQQVQPPNPVIPPWLATSNNGNNVVARPPSVTLTLSPSTVAAAAPQPPIPWLQQQQPERAENGPGGLVLGSMMPSCSGSSESVFLSELVECCRELEEGHRAWADHKKEAAWRLRRLELQLESEKTCRQREKMEEIEAKMKALREEQKNAMEKIEGEYREQLVGLRRDAEAKDQKLADQWTSRHIRLTKFLEQQMGCRLDRP
notes: The methods spell MBP out as 'Myelin basic protein'; source: purified recombinant protein
  binding result: binds
